Reference: patent publication US20130212721
Where a chain is given by its changes, count along the chain named.

Assays:
[1] = tested on: T1, human FEAT D274A/D288A mutant
T1 sequence: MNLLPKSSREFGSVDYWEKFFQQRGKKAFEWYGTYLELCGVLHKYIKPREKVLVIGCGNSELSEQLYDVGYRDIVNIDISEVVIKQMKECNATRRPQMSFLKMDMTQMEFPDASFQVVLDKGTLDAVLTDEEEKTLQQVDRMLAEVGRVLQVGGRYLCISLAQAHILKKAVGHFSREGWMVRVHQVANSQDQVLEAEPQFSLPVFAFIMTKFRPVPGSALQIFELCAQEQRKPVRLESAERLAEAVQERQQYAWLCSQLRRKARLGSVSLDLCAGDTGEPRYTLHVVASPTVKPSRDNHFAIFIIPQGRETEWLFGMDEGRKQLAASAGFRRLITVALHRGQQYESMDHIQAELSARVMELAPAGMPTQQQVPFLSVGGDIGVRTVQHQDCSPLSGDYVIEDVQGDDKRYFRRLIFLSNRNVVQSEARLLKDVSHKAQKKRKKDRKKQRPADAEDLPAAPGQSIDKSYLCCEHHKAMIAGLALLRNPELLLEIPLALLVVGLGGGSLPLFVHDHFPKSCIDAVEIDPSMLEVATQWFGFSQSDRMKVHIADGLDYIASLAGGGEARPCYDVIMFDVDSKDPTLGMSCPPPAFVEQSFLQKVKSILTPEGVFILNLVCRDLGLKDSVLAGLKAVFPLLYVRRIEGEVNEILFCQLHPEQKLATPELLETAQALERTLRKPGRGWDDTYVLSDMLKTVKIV

[2] = tested on: T2, human FEAT protein (faint expression in normal tissues, aberrant overexpression in tumors)
T2 sequence: T1 sequence with A274D, A288D

Substance | caspase-3 cleavage of FEAT with Asp-to-Ala mutations in the cleavage sites [1] | cleavage of in vitro transcribed/translated [35S]-FEAT (SDS-PAGE, autoradiography) [2]
His-tagged recombinant caspase-3 | are resistant to caspase-3 cleavage | FEAT transcribed/translated in vitro was cleaved by caspase-3, but not by caspase-6
His-tagged recombinant caspase-6 |  | FEAT transcribed/translated in vitro was cleaved by caspase-3, but not by caspase-6
